This note sets out measurements from patent publication US20180112001A1 (Regeneron, published 2018).

The target of test [1] is T1, soluble monomeric human MUC16, truncated format encompassing the last five SEA domains of Mucin-16 (human).
T1 construct: also called hMUC16.mmh; MUC16 "nub"
T1 chain: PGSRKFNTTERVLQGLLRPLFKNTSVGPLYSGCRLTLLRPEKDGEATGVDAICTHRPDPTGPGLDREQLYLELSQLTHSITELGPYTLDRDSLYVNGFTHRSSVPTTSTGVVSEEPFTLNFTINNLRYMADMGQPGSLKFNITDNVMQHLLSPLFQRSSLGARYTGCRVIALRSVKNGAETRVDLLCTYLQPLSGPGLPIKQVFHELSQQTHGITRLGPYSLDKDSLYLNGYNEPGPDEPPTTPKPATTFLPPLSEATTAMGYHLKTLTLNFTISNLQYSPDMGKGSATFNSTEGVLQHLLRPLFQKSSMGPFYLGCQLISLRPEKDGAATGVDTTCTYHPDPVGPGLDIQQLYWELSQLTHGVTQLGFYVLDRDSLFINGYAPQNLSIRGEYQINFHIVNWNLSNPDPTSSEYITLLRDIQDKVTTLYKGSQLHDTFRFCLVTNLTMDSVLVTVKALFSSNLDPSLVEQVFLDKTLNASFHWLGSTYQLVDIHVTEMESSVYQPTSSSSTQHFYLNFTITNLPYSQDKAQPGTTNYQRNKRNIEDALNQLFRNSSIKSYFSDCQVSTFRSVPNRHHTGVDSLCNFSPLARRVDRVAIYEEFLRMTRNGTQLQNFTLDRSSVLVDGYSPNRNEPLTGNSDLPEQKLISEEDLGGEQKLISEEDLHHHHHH
The experiment in a line: SPR Biacore, antibody captured, soluble monomeric hMUC16.mmh injected, 25C.

For test [2], the target named is T2, human MUC16 (mucin 16), endogenously expressed on cells (human).
T2 construct: Endogenous MUC16 on OVCAR-3 / OVCAR3-Luc / PEO-1 / HPAC cells; also called hMUC16
The experiment in a line: MSD electrochemiluminescence cell binding; RLU ratio OVCAR-3/SK-OV-3; Ab 1.9 nM.

Test [3] concerns the target T2, human MUC16 (mucin 16), endogenously …. The experiment in a line: MSD electrochemiluminescence cell binding; RLU ratio OVCAR-3/SK-OV-3; Ab 16.7 nM; NS = Non-Specific, ratio <2.5-fold.
For test [4] the target is unchanged. The experiment in a line: cell-based or functional assay.
Test [5] deals with T1, soluble monomeric human MUC16, …. The test is described as follows: SPR Biacore, antibody captured, soluble monomeric hMUC16.mmh injected, 25C.
The next test addresses mouse CD3 (mouse, UniProt P22646 22-108). The test is described as follows: not described (statement in the pharmacokinetic example).
Test [6] deals with T2, human MUC16 (mucin 16), endogenously …. The test is described as follows: FACS binding titration on PEO-1 (MUC16+) cells. (A flow cytometer gives signals particle by particle.)
Test [7] has the same target. The test is described as follows: FACS binding titration on OVCAR3-Luc (MUC16+) cells.
In test [8] the target is T3, cynomolgus monkey CD3 on cynomolgus T cells (cynomolgus monkey, UniProt Q95LI5 22-198).
T3 construct: whole, on cells; also called cynomolgus CD3
T3 sequence (Q95LI5 22-198): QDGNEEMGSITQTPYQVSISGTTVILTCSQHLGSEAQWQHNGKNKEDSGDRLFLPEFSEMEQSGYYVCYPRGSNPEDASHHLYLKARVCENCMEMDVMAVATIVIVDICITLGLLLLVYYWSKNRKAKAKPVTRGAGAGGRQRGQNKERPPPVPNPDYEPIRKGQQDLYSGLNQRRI
The experiment in a line: FACS binding titration on cynomolgus T cells.

Test [9] concerns the target T2, human MUC16 (mucin 16), endogenously …. The experiment in a line: cell-based or functional assay. The source holds these as a separate data set.
Test [10] addresses T4, human CD3 on cells (Jurkat cells, human T cells) (human, UniProt P07766 23-207; P04234 22-171).
T4 construct: on cells CD3 is part of the TCR complex; also called hCD3
The experiment in a line: FACS titration of Jurkat cells.

Test [11] deals with T3, cynomolgus monkey CD3 on cynomolgus T …. The experiment in a line: FACS titration of cynomolgus T cells.
Test [12] addresses T4, human CD3 on cells (Jurkat cells, human …). The experiment in a line: cell-based or functional assay.
In test [13] the target is T2, human MUC16 (mucin 16), endogenously …. The test is described as follows: FACS binding titration on OVCAR3 (MUC16+) cells.
In test [14] the target is T4, human CD3 on cells (Jurkat cells, human …). The test is described as follows: FACS binding titration on Jurkat cells.
Test [15] has the same target. The experiment in a line: FACS binding titration on Jurkat cells. The source holds these as a separate data set.
Test [16] shares this target. The experiment in a line: cell-based or functional assay. The source holds these as a separate data set.
Test [17] shares this target. The test is described as follows: cell-based or functional assay. This is another data set of the same source.
Test [18] concerns the target T2, human MUC16 (mucin 16), endogenously …. The test is described as follows: cell-based or functional assay. The source holds these as a separate data set.

Like-named read-outs stand apart in the source and are kept apart here.

T4 sequence (P07766 23-207 limits assumed, chain 1 of 2): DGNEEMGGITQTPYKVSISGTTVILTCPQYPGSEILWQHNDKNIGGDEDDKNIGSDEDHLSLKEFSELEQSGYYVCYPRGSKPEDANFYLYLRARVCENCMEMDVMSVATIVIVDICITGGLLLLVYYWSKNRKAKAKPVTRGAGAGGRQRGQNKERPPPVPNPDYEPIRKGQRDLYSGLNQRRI
T4 sequence (P04234 22-171 limits assumed, chain 2 of 2): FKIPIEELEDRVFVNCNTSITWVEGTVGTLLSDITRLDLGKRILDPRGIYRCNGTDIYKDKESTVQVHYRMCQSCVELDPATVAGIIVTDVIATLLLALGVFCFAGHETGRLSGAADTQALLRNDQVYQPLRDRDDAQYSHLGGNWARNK
mouse CD3, sequence (P22646 22-108): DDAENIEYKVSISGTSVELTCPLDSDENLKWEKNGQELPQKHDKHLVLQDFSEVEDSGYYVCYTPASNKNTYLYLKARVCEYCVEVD

B1: H1H8808P (antibody, human IgG1, V domains shown)
VH: QVQLVESGGGVVQPGRSLRLSCVASGFTFSNYGIHWVRQAPGKGLEWVAVISDDGSFKFYADSVKGRFTISRDNSKNTLYLQMNSLRVEDSAVYHCAKWQHNWNDGGFDYWGQGTLVTVSS
VL: EIVLTQSPDTLSLSPGERATLSCRASQSLSSNYLAWYRQKPGQAPRLLIYGISSRATGIPDRFSGSGSGTDFTLTISRLEPEDFAVYYCQQYGSSPWTFGQGTKVEIK
notes: Human IgG1 (H1H)
B1: in test [1], the Kd came out at 52.4 nM, the koff was found to be 0.000216 s⁻¹, the on-rate constant (kon) was 4120 M⁻¹ s⁻¹ and the “t1/2” value was 54 min. Also, the “Ratio: anti-MUC16 Binding OVCAR-3/SK-OV-3” value in test [2] amounted to 4 ratio. For the same molecule, the “Ratio: anti-MUC16 Binding OVCAR-3/SK-OV-3” value in test [3] is under 2.5 ratio.

B2: BSMUC16/CD3-005 (bispecific antibody, V domains shown)
VH 1: QVQLVESGGGLVKPGGSLRLSCAASGFTFSNYYMSWVRQAPGKGLEWISYISGRGSTIFYADSVKGRITISRDNAKNSLFLQMNSLRAEDTAVYFCVKDRGGYSPYWGQGTLVTVSS
VH 2: EVQLVESGGGLVQPGRSLRLSCAASGFTFDDYSMHWVRQAPGKGLEWVSGISWNSGSIGYADSVKGRFTISRDNAKNSLYLQMNSLRAEDTALYYCAKYGSGYGKFYYYGMDVWGQGTTVTVSS
VL: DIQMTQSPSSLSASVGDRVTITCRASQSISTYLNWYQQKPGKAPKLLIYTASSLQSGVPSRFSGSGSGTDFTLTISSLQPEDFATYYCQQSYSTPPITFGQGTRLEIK
notes: Anti-MUC16 VH (H1H8767P), anti-CD3 VH (CD3-VH-G20), common light chain; also called REGN4019; anti-MUC16xCD3 bispecific antibody with CD3-VH-G20 arm
For B2, the “PEO-1 cell depletion EC50” value in test [4] came to 0.0774 nM. For the same molecule, in test [5], the Kd was 6 nM, the koff amounted to 0.000564 s⁻¹, the kon is 94100 M⁻¹ s⁻¹ and the “t ½” value is 21 min. Moreover, the binding result with mouse CD3 was “no binding”. In test [6], the EC50 was 2.63 nM. The molecule further showed an EC50 in [7] of 1.47 nM. Moreover, a half-maximal response in test [8] (EC50) required 1170 nM. In addition, the “OVCAR3-Luc cell depletion EC50” value in test [9] was found to be 0.0516 nM.

B3: CD3-VH-P (anti-CD3 antibody) (antibody, V domains shown)
VH: EVQLVESGGGLVQPGRSLRLSCVASGFTFDDYSMHWVRQAPGKGLEWVSGISWNSGSKDYADSVKGRFTISRDNAKNSLYLQMNSLRAEDTALYYCAKYGSGYGKFYHYGLDVWGQGTTVTVSS
VL: DIQMTQSPSSLSASVGDSVTITCRASQSINNYLNWYQQKPGKAPKLLIYTASSLLSGVPSRFSGSGSGTDFTLTISGLHPEDFATYFCQQSFSTPPITFGQGTRLDIK
With B3, the EC50 in [10] and in [11] was 1 to 40 nM throughout.

B4: H1H8767P (antibody, human IgG1, V domains shown)
VH: QVQLVESGGGLVKPGGSLRLSCAASGFTFSNYYMSWVRQAPGKGLEWISYISGRGSTIFYADSVKGRITISRDNAKNSLFLQMNSLRAEDTAVYFCVKDRGGYSPYWGQGTLVTVSS
VL: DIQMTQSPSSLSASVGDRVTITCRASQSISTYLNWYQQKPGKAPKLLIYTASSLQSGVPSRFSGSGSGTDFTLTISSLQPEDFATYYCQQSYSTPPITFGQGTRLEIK
notes: Human IgG1 (H1H)
For the molecule B4, in [1], the Kd stood at 3.58 nM, the koff stood at 0.000418 s⁻¹, the association rate constant (kon) came to 117000 M⁻¹ s⁻¹ and the “t1/2” value was 28 min. Moreover, the “Ratio: anti-MUC16 Binding OVCAR-3/SK-OV-3” value in test [2] turned out to be 4 ratio. Further, the “Ratio: anti-MUC16 Binding OVCAR-3/SK-OV-3” value in [3] is under 2.5 ratio.

B5: BSMUC16/CD3-001 (bispecific antibody, V domains shown)
VH 1: QVQLVESGGGLVKPGGSLRLSCAASGFTFSNYYMSWVRQAPGKGLEWISYISGRGSTIFYADSVKGRITISRDNAKNSLFLQMNSLRAEDTAVYFCVKDRGGYSPYWGQGTLVTVSS
VH 2: EVQLVESGGGLVQPGRSLRLSCAASGFTFDDYSMHWVRQAPGKGLEWVSGISWNSGSKGYADSVKGRFTISRDNAKNSLYLQMNSLRAEDTALYYCAKYGSGYGKFYHYGLDVWGQGTTVTVSS
VL: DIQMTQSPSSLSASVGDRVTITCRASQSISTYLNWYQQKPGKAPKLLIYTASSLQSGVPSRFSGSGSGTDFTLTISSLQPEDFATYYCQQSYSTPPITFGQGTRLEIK
notes: Anti-MUC16 VH (H1H8767P), anti-CD3 VH (CD3-VH-G), common light chain; also called anti-MUC16xCD3 bispecific antibody with CD3-VH-G arm
As to B5, the “T cells activation (CD25 upregulation) EC50” value in test [12] is 0.039 nM; in [16] it was 0.0306 nM. Moreover, the “T cells activation (CD69 upregulation) EC50” value in [12] turned out to be 0.00834 nM; in [16] it was 0.00298 nM. The “PEO-1 cell depletion EC50” value in [4] is 0.0256 nM. Also, the affinity in test [5], expressed as Kd, was 6.18 nM. In [5], the koff worked out at 0.000586 s⁻¹. Besides, the kon in [5] was found to be 94800 M⁻¹ s⁻¹. For the same molecule, the “t ½” value in test [5] came out at 20 min. Further, the EC50 turned out to be 1.2 nM in [13]; 3.02 nM in test [6]; 1.32 nM in test [7]; 15.6 nM in test [8]; 3.21 nM in test [14]; 6.44 nM in test [15]. In addition, the binding result with mouse CD3 is “no binding”. Besides, the “OVCAR3-Luc cell depletion EC50” value in test [9] stood at 0.0154 nM. In addition, in test [17], the “T cell activation (CD69 upregulation) EC50” value was 0.00588 nM. Besides, the “OVCAR3 cell depletion EC50” value in [18] is 0.0224 nM.

B6: BSMUC16/CD3-002 (bispecific antibody, V domains shown)
VH 1: QVQLVESGGGLVKPGGSLRLSCAASGFTFSNYYMSWVRQAPGKGLEWISYISGRGSTIFYADSVKGRITISRDNAKNSLFLQMNSLRAEDTAVYFCVKDRGGYSPYWGQGTLVTVSS
VH 2: EVQLVESGGGLVQPGRSLRLSCAASGFTFDDYSMHWVRQAPGKGLEWVSGISWNSGSIGYADSVKGRFTISRDNAKNSLYLQMNSLRAEDTALYYCAKDGSGYGKFYYYGMDVWGQGTTVTVSS
VL: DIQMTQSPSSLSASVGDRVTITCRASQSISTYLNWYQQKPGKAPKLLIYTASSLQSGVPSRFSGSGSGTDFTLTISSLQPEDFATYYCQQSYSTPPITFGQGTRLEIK
notes: Anti-MUC16 VH (H1H8767P), anti-CD3 VH (CD3-VH-G5), common light chain; also called anti-MUC16xCD3 bispecific antibody with CD3-VH-G5 arm
For the molecule B6, the “T cells activation (CD25 upregulation) EC50” value in test [12] was determined as 0.0889 nM. Also, the “T cells activation (CD69 upregulation) EC50” value in test [12] came out at 0.0134 nM. In addition, in test [4], the “PEO-1 cell depletion EC50” value came to 0.0675 nM. Further, the 50% effective concentration (EC50) stood at 2.69 nM in [13], 3.13 nM in test [6] and 301 nM in test [15]. In test [8], the binding result was “no binding (tested: serial dilution from 66.6 nM to 0.001 nM)”. The “T cell activation (CD69 upregulation) EC50” value in [17] was 0.0101 nM. Moreover, the “OVCAR3 cell depletion EC50” value in test [18] turned out to be 0.0306 nM.

Broadly, the Kd is the concentration at which binding is half-saturated. Broadly, the koff is a measure of how fast the partners let go of each other. The term kon denotes the rate constant with which the complex forms. In general, EC50 refers to the concentration that produces a half-maximal response.
